# Results reported in patent publication US20220089647A1 (FUJIFILM, published 2022).
# Starred links: 1 amine or outer side, 2 acyl side, 3 side chain; linkers in the order of their positions; H or OH if unused. Positions of bridges follow the written chain, without caps; N, C: chain ends. Non-standard residues stand in square brackets, D forms with d. Primed or numbered codes have the meaning given here. No end group written: not given here. Dab(acetyl)″ = 2-amino-4-(acetylamino)butanoic acid, acetyl CH3 carbon bonded to the S of Hcy (S-CH2-C(=O)-NH-), O=C(C[*:3])NCC[C@H](N[*:1])C(=O)[*:2]; Dab(acetyl) = 2-amino-4-acetylamino-butanoic acid residue (N-γ-acetyl-diaminobutyric acid), CC(=O)NCC[C@H](N[*:1])C(=O)[*:2]; Orn(acetyl)″ = N-delta-acetyl-ornithine, acetyl CH3 carbon bonded to the S of Hcy, O=C(C[*:3])NCCC[C@H](N[*:1])C(=O)[*:2]; Lys(acetyl) = N-epsilon-acetyl-lysine, acetyl CH3 carbon bonded to the S of Hcy, O=C(C[*:3])NCCCC[C@H](N[*:1])C(=O)[*:2]; Dap(acetyl) = 2-amino-3-acetylamino-propanoic acid residue, CC(=O)NC[C@H](N[*:1])C(=O)[*:2]; Orn(acetyl) = N-δ-acetyl-ornithine residue, CC(=O)NCCC[C@H](N[*:1])C(=O)[*:2]; COCH2 = acetyl group that carries the bridge; hCys = N[C@@H](CCS)C(=O)O; Dab = NCC[C@H](N)C(=O)O
# Target: T1, human integrin αvβ5 (human, UniProt P06756 31-992; P18084 24-719, limits assumed)
# T1 construct: Heterodimer flowed as analyte at 30, 100, 300 and 1,000 nM in HEPES buffer with 5 mM MgCl2
# Assay: SPR, Biacore 3000, peptide immobilised; A = KD 50 nM or less
# Method: However, only for the cyclic peptides 125, 126, and 127, in which the number of lysine residues having an amino group as the immobilizing functional group was zero, the amount of the sample solution to be supplied to the sensor chip was set to 500 μL instead of 20 μL. Further, 70 μL of the mixed aqueous solution of 0.2 M EDC and 0.04 M NHS was added to another flow channel of the same sensor chip without immobilizing the sample, and then blocking treatment and washing treatment were carried out. Hereinafter, the obtained immobilization-treated sensor chip is referred to as an “immobilization-treated sensor chip A”.
# After adding human integrin αvβ5 for 10 minutes at 25° C., which was diluted to 30 nM using a HEPES buffer solution to which magnesium chloride was added to 5 mM, in each flow channel of the immobilization-treated sensor chip A prepared in (1) above, the same HEPES buffer solution (containing 5 mM magnesium chloride) was allowed to flow as a running buffer for 30 minutes, and measurement was carried out with Biacore 3000. Then, a regeneration treatment of removing human integrin αvβ5 was carried out by allowing a 0.5 M EDTA aqueous solution to flow through each flow channel for 10 minutes. Further, the above-described measurement process consisting of adding integrin for 10 minutes, allowing a running buffer to flow for 30 minutes, carrying out measurement with Biacore 3000, and carrying out regeneration treatment with 0.5 M EDTA aqueous solution was carried out in the same manner for 100 nM human integrin αvβ5, 300 nM human integrin αvβ5, and 1,000 nM human integrin αvβ5. Dissociation constant between the cyclic peptide and human integrin αvβ5 was calculated from the difference between the value measured by Biacore 3000 in the flow channel immobilized with the cyclic peptide and the value measured by Biacore 3000 in the flow channel unimmobilized with the cyclic peptide, in a case where each concentration of human integrin αvβ5 was allowed to flow, and the integrin binding property was evaluated according to the following evaluation standards. It is preferable that the evaluation result satisfies the evaluation standard A, B, or C.
# T1 sequence (P06756 31-992 limits assumed, chain 1 of 2): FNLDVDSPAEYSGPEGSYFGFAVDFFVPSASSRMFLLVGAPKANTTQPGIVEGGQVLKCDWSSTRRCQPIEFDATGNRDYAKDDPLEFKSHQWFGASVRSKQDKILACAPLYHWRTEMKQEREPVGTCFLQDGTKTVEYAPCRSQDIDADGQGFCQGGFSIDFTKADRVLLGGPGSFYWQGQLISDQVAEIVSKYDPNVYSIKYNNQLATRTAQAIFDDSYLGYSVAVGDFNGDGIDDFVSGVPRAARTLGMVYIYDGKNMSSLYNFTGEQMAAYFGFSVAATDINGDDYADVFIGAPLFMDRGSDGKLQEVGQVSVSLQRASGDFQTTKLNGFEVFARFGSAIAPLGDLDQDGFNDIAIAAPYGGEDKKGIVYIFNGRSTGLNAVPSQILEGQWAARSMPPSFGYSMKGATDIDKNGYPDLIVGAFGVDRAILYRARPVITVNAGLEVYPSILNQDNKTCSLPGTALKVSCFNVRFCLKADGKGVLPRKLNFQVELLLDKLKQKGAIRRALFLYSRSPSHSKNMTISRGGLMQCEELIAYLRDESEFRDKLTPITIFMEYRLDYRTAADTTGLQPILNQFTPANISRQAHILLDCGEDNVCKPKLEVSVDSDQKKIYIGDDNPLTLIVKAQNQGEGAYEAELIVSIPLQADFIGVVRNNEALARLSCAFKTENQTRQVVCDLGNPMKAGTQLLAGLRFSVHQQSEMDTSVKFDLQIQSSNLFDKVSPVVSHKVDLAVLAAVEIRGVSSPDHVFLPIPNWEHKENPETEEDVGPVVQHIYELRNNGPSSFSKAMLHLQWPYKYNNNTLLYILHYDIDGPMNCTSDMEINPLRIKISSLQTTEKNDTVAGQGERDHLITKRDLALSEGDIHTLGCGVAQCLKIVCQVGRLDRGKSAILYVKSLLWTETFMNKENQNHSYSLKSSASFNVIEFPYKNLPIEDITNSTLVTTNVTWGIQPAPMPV
# T1 sequence (P18084 24-719 limits assumed, chain 2 of 2): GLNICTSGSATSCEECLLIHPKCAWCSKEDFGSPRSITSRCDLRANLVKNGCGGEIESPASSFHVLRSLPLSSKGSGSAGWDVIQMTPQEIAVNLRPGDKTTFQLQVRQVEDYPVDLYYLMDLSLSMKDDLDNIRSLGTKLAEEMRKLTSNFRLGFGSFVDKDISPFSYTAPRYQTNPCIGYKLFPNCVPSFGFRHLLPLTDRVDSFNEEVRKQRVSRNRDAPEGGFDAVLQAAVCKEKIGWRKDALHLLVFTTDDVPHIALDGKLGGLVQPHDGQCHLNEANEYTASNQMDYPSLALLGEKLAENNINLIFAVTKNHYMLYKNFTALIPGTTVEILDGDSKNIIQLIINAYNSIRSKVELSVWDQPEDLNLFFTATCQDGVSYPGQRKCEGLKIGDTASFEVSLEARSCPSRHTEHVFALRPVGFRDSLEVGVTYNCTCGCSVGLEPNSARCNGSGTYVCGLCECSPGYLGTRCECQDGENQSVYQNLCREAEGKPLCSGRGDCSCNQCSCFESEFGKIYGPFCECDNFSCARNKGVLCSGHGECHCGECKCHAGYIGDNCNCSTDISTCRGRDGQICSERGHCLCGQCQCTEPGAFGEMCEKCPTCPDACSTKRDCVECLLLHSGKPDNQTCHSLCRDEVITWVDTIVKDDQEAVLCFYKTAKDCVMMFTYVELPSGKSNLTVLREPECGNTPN
Binder,dissociation constant,dissociation constant (KD)
KKKG[hCys]IPRGDTFR[Orn(acetyl)″]A (thioether 5-14) [Cyclic peptide 115],≤ 50 nM,
KKKG[Dap(acetyl)]IPRGDTFR[hCys]A (thioether 5-14) [Cyclic peptide 117],≤ 50 nM,
KKKGXIPRGDTFRXA (not fully specified; KKKG-(Pen)-IPRGDTFR(Orn(acetyl))A; thioether bond Pen-Orn(acetyl)) [Cyclic peptide 130],≤ 50 nM,
KKKG[Orn(acetyl)]IPRGDTFRCA (thioether 5-14) [Cyclic peptide 139],≤ 50 nM,
KKKXIPRGDNFX (not fully specified; KKK-(Hcy)-IPRGDNF(Dab(acetyl)); thioether bond Hcy-Dab(acetyl)) [Cyclic peptide 13],,≤ 50 nM
KKK[hCys]VPRGDTF[Dab(acetyl)″] (thioether 4-12) [Cyclic peptide 64],≤ 50 nM,
KKK[hCys]VPRGDVF[Dab(acetyl)″] (thioether 4-12) [Cyclic peptide 66],≤ 50 nM,
KKK[hCys]VPRGDNF[Dab(acetyl)] (thioether 4-12) [Cyclic peptide 14],,≤ 50 nM
KKK[hCys]IPRGDTF[Dab(acetyl)″] (thioether 4-12) [Cyclic peptide 63],≤ 50 nM,
KKKG[hCys]IPRGDTFR[Lys(acetyl)]A (thioether 5-14) [Cyclic peptide 116],≤ 50 nM,
"AXVPRGDTFAXA (not fully specified; A-(Hcy)-VPRGDTFA(Dab(acetyl))A; thioether bond Hcy-Dab(acetyl), no lysine) [Cyclic peptide 125]",≤ 50 nM,
KKKGXIPRGDTFRXA (not fully specified; KKKG(Dap(acetyl))IPRGDTFR-(Pen)-A; thioether bond Dap(acetyl)-Pen) [Cyclic peptide 132],≤ 50 nM,
KKKGXIPRGDTFRXA (not fully specified; KKKG(Orn(acetyl))IPRGDTFR-(Hcy)-A; thioether bond Orn(acetyl)-Hcy) [Cyclic peptide 119],≤ 50 nM,
KKKGXIPRGDTFRXA (not fully specified; KKKG-(Pen)-IPRGDTFR(Dap(acetyl))A; thioether bond Pen-Dap(acetyl)) [Cyclic peptide 128],≤ 50 nM,
KKK[hCys]IPRGDNFR[Dab](COCH2)A (thioether 4-13) [Cyclic peptide 3],,≤ 50 nM
KKK[hCys]IPRGDNFR[Dab](COCH2)G (thioether 4-13) [Cyclic peptide 4],,≤ 50 nM
KKK[hCys]IPRGDNFR[Dab(acetyl)″]D (thioether 4-13) [Cyclic peptide 5],,≤ 50 nM
KKK[hCys]VPRGDNFR[Dab](COCH2)A (thioether 4-13) [Cyclic peptide 21],,≤ 50 nM
KKKGXIPRGDTFRXA (not fully specified; KKKG(Orn(acetyl))IPRGDTFR-(Pen)-A; thioether bond Orn(acetyl)-Pen) [Cyclic peptide 134],≤ 50 nM,
"AXIPRGDSFAXA (not fully specified; A-(Hcy)-IPRGDSFA(Dab(acetyl))A; thioether bond Hcy-Dab(acetyl), no lysine) [Cyclic peptide 126]",≤ 50 nM,
"AXIPRGDSFAXG (not fully specified; A-(Hcy)-IPRGDSFA(Dab(acetyl))G; thioether bond Hcy-Dab(acetyl), no lysine) [Cyclic peptide 127]",≤ 50 nM,
KKKG[hCys]IPRGDTFR[Dap(acetyl)]A (thioether 5-14) [Cyclic peptide 114],≤ 50 nM,
KKKG[Dab(acetyl)″]IPRGDTFR[hCys]A (thioether 5-14) [Cyclic peptide 118],≤ 50 nM,
